Test results: patent US20030144495, “Drosophila recombination-associated protein and methods for use” (Albert Einstein College of Medicine of Yeshiva University, published 2003)

Target: RecA (Escherichia coli, UniProt P0A7G6 P0A7G6:2-353)
Experiment: EMSA; gel shift in presence of ATP-gamma-S, 20 mM Tris pH 7.35, 10 mM MgCl2, 37 C
Conditions: tags: commercial, Promega/Pharmacia/USB; label: 5'-32P
Description: Any oligonucleotide may be used for this assay. For this experiment, an oligonucleotide (33-mer) derived from the central portion of the pUC19 poly linker 5′-[…]-3′ [SEQ ID NO: 20] was endlabeled at the 5′ end with ³²P-ATP using T4 polynucleotide kinase. The oligonucleotide was purified on Qiaquick columns using buffer PN (Qiagen) and the OD at 260 nm indicated a concentration of 5 ng/μl. Any oligonucleotide sequence may be used in this experiment. The SEQ ID NO: 16 oligonucleotide was incubated with 60 ng of DRAP or RecA in various buffers for 30 minutes at 37° C. A loading buffer was added and the material separated on a 6% 1×TAE, polyacrylamide minigel at 250 V for 14 minutes. The gel was dried and exposed to film with one intensifying screen for ˜16 hrs. at −80° C. No degradation of the oligonucleotide was observed. (FIG. 8.) Gel shifting with RecA in the presence of […] is consistent with the known properties of that protein.

Chain of RecA (P0A7G6 2-353, one chain of several): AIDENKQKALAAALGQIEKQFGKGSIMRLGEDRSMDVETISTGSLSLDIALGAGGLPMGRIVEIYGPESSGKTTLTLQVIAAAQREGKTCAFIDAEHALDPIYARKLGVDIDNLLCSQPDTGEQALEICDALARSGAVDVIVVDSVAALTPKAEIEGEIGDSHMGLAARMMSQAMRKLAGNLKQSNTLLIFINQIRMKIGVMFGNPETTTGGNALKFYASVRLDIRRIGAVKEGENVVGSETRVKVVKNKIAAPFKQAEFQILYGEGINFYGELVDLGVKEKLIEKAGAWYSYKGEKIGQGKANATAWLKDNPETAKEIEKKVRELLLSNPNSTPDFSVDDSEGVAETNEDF

## GGTACCCGGGGATCCTCTAGAGTCGACCTGCAG (ssDNA) [pUC19 polylinker 33-mer]
  binding result: binds
